Reference: patent US20180273642A1 (EMERGENT PRODUCT DEVELOPMENT SEATTLE, published 2018)

Legend:
CD28 on CD4+ T cells = target: T1, CD28 on CD4+ T cells (human, UniProt P10747 19-220); test: binding to CD4+ T cells (FIG. 3; method not described)
T1 construct: whole, on cells

CD19 on cells = target: T2, CD19 on cells (UniProt P15391 20-556, limits assumed); test: flow cytometry on Rec1 (CD19+, CD20+) cells, 100 nM to 0.1 nM, goat anti-human IgG-FITC
T2 construct: whole, on cells
T2 sequence (looked up): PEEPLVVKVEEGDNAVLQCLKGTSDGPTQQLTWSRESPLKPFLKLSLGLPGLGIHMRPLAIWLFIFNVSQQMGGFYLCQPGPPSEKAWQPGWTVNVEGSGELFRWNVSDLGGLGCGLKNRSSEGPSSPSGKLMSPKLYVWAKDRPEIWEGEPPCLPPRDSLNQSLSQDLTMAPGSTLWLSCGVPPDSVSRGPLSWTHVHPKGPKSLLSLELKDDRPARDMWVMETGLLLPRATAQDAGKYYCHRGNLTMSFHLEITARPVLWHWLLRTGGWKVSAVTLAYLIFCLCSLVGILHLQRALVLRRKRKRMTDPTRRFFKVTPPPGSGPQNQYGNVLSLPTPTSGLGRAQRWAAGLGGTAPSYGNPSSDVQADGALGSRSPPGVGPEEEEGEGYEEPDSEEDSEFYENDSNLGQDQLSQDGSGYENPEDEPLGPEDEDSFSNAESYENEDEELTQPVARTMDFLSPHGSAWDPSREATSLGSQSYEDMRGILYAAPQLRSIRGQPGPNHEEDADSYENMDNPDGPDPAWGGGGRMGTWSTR
From the text: (§1) T-cells were isolated from donor PBMCs using a Pan T-cell Isolation Kit II from Miltenyi Biotec (Bergisch Gladbach, Germany). Non T-cells were separated from PBMCs by being indirectly magnetically labeled with biotin-conjugated monoclonal antibodies and anti-biotin magnetic microbeads. These cells were then depleted by retaining them in a column surrounded by a magnetic field. The T-cells were not retained in the column and were collected in the flow through.
(§2) The cells were washed three times and then incubated with goat anti-human IgG-FITC (1:200 dilution) for another 30 minutes at 4° C. The cells were then washed again three times, fixed in 1% paraformaldehyde and read on a FACS-Calibur instrument.

CD20 on cells = target: T3, CD20 on cells (UniProt P11836 1-297, limits assumed); test: as above
T3 construct: whole, on cells
T3 sequence (looked up): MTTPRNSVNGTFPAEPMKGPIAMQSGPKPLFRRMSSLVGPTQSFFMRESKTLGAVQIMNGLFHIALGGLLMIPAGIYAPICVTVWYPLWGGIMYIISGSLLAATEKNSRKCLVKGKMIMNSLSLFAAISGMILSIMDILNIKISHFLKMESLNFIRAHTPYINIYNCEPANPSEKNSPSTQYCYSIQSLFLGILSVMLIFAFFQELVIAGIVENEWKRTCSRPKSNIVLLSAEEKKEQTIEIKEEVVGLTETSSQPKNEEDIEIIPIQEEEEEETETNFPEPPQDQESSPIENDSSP
From the text: as §1, §2

B1: bivalent anti-CD28 polypeptide heterodimer X0172 (Fc fusion)
chain 1: QVQLKESGPGSVAPSQSLSITCTVSGFSLTGYGVNWVRQPPGKGLEWLGMIWGDGSTDYNSALKSRLSITKDNSKSQVFLKMNSLQTDDTARYYCARDGYSNFHYYVMDYWGQGTSVTVSSGGGGSGGGGSGGGGSGGGGSDIVLTQSPASLAVSLGQRATISCRASESVEYYVTSLMQWYQQKPGQPPKLLISAASNVESGVPARFSGSGSGTDFSLNIHPVEEDDIAMYFCQQSRKVPWTFGGGTKLEIKSSSASTKGPSVFPLAPSSKSTSGGTAALGCLVKDYFPEPVTVSWNSGALTSGVHTFPAVLQSSGLYSLSSVVTVPSSSLGTQTYICNVNHKPSNTKVDKKVRTEPKSSDKTHTCPPCPSGAPELLGGPSVFLFPPKPKDTLMISRTPEVTCVVVDVSHEDPEVKFNWYVDGVEVHNAKTKPREEQYNSTYRVVSVLTVLHQDWLNGKEYKCKVSNKALPAPIEKTISKAKGQPREPQVYTLPPSRDELTKNQVSLTCLVKGFYPSDIAVEWESNGQPENNYKTTPPVLDSDGSFFLYSKLTVDKSRWQQGNVFSCSVMHEALHNHYTQKSLSLSPGKSRTVAAPSVFIFPPSDEQLKSGTASVVCLLNNFYPREAKVQWKVDNALQSGNSQESVTEQDSKDSTYSLSSTLTLSKADYEKHKVYACEVTHQGLSSPVTKSFNRGE
chain 2: TVAAPSVFIFPPSDEQLKSGTASVVCLLNNFYPREAKVQWKVDNALQSGNSQESVTEQDSKDSTYSLSSTLTLSKADYEKHKVYACEVTHQGLSSPVTKSFNRGERTEPKSSDKTHTCPPCPSGAPELLGGPSVFLFPPKPKDTLMISRTPEVTCVVVDVSHEDPEVKFNWYVDGVEVHNAKTKPREEQYNSTYRVVSVLTVLHQDWLNGKEYKCKVSNKALPAPIEKTISKAKGQPREPQVYTLPPSRDELTKNQVSLTCLVKGFYPSDIAVEWESNGQPENNYKTTPPVLDSDGSFFLYSKLTVDKSRWQQGNVFSCSVMHEALHNHYTQKSLSLSPGKSRASTKGPSVFPLAPSSKSTSGGTAALGCLVKDYFPEPVTVSWNSGALTSGVHTFPAVLQSSGLYSLSSVVTVPSSSLGTQTYICNVNHKPSNTKVDKKVNSLFNQEVQIPLTESYSPNSQVQLKESGPGSVAPSQSLSITCTVSGFSLTGYGVNWVRQPPGKGLEWLGMIWGDGSTDYNSALKSRLSITKDNSKSQVFLKMNSLQTDDTARYYCARDGYSNFHYYVMDYWGQGTSVTVSSGGGGSGGGGSGGGGSGGGGSDIVLTQSPASLAVSLGQRATISCRASESVEYYVTSLMQWYQQKPGQPPKLLISAASNVESGVPARFSGSGSGTDFSLNIHPVEEDDIAMYFCQQSRKVPWTFGGGTKLEIK
notes: also called X0130 + X0168
**Q.** Does B1 bind (CD28 on CD4+ T cells)?
**A.** Result: binds

B2: bispecific polypeptide heterodimer TSC020 (anti-CD19 and anti-CD3) (bispecific antibody)
chain 1: DIVLTQSPASLAVSLGQRATISCKASQSVDYDGDSYLNWYQQIPGQPPKLLIYDASNLVSGIPPRFSGSGSGTDFTLNIHPVEKVDAATYHCQQSTEDPWTFGGGTKLEIKGGGGSGGGGSGGGGASQVQLQQSGAELVRPGSSVKISCKASGYAFSSYWMNWVKQRPGQGLEWIGQIWPGDGDTNYNGKFKGKATLTADESSSTAYMQLSSLASEDSAVYFCARRETTTVGRYYYAMDYWGQGTSVTVSSSEPKSSDKTHTCPPCPSGAPELLGGPSVFLFPPKPKDTLMISRTPEVTCVVVDVSHEDPEVKFNWYVDGVEVHNAKTKPREEQYNSTYRVVSVLTVLHQDWLNGKEYKCKVSNKALPAPIEKTISKAKGQPREPQVYTLPPSRDELTKNQVSLTCLVKGFYPSDIAVEWESNGQPENNYKTTPPVLDSDGSFFLYSKLTVDKSRWQQGNVFSCSVMHEALHNHYTQKSLSLSPGKSRASTKGPSVFPLAPSSKSTSGGTAALGCLVKDYFPEPVTVSWNSGALTSGVHTFPAVLQSSGLYSLSSVVTVPSSSLGTQTYICNVNHKPSNTKVDKKV
chain 2: EVQLQQSGPELVKPGASMKISCKASGYSFTGYIVNWLKQSHGKNLEWIGLINPYKGLTTYNQKFKGKATLTVDKSSSTAYMELLSLTSEDSAVYYCARSGYYGDSDWYFDVWGAGTTVTVSSGGGGSGGGGSGGGGSAQDIQMTQTTSSLSASLGDRVTISCRASQDIRNYLNWYQQKPDGTVKLLIYYTSRLHSGVPSRFSGSGSGTDYSLTIANLQPEDIATYFCQQGNTLPWTFGGGTKLVTKRSSEPKSSDKTHTCPPCPSGAPELLGGPSVFLFPPKPKDTLMISRTPEVTCVVVDVSHEDPEVKFNWYVDGVEVHNAKTKPREEQYNSTYRVVSVLTVLHQDWLNGKEYKCKVSNKALPAPIEKTISKAKGQPREPQVYTLPPSRDELTKNQVSLTCLVKGFYPSDIAVEWESNGQPENNYKTTPPVLDSDGSFFLYSKLTVDKSRWQQGNVFSCSVMHEALHNHYTQKSLSLSPGKSRTVAAPSVFIFPPSDEQLKSGTASVVCLLNYFYPREAKVQWKVDNALQSGNSQESATEQDSKDSTYSLSSELTLSKADYEKHKVYACEVTHQGLSSPVTKSFNRGE
notes: HD37 (anti-CD19) scFv and G19-4 (anti-CD3) scFv; also called CD19×αCD3; TSC001 + TSC019
**Q.** Does B2 bind (CD19 on cells)?
**A.** Result: binds

B3: bispecific (CD20, CD3) polypeptide heterodimer TSC021 (bispecific antibody)
chain 1: QIVLSQSPAILSASPGEKVTMTCRASSSVSYMHWYQQKPGSSPKPWIYAPSNLASGVPARFSGSGSGTSYSLTISRVEAEDAATYYCQQWSFNPPTFGAGTKLELKDGGGSGGGGSGGGGASQAYLQQSGAESVRPGASVKMSCKASGYTFTSYNMHWVKQTPRQGLEWIGAIYPGNGDTSYNQKFKGKATLTVDKSSSTAYMQLSSLTSEDSAVYFCARVVYYSNSYWYFDVWGTGTTVTVSSSEPKSSDKTHTCPPCPSGAPELLGGPSVFLFPPKPKDTLMISRTPEVTCVVVDVSHEDPEVKFNWYVDGVEVHNAKTKPREEQYNSTYRVVSVLTVLHQDWLNGKEYKCKVSNKALPAPIEKTISKAKGQPREPQVYTLPPSRDELTKNQVSLTCLVKGFYPSDIAVEWESNGQPENNYKTTPPVLDSDGSFFLYSKLTVDKSRWQQGNVFSCSVMHEALHNHYTQKSLSLSPGKSRASTKGPSVFPLAPSSKSTSGGTAALGCLVKDYFPEPVTVSWNSGALTSGVHTFPAVLQSSGLYSLSSVVTVPSSSLGTQTYICNVNHKPSNTKVDKKV
chain 2: EVQLQQSGPELVKPGASMKISCKASGYSFTGYIVNWLKQSHGKNLEWIGLINPYKGLTTYNQKFKGKATLTVDKSSSTAYMELLSLTSEDSAVYYCARSGYYGDSDWYFDVWGAGTTVTVSSGGGGSGGGGSGGGGSAQDIQMTQTTSSLSASLGDRVTISCRASQDIRNYLNWYQQKPDGTVKLLIYYTSRLHSGVPSRFSGSGSGTDYSLTIANLQPEDIATYFCQQGNTLPWTFGGGTKLVTKRSSEPKSSDKTHTCPPCPSGAPELLGGPSVFLFPPKPKDTLMISRTPEVTCVVVDVSHEDPEVKFNWYVDGVEVHNAKTKPREEQYNSTYRVVSVLTVLHQDWLNGKEYKCKVSNKALPAPIEKTISKAKGQPREPQVYTLPPSRDELTKNQVSLTCLVKGFYPSDIAVEWESNGQPENNYKTTPPVLDSDGSFFLYSKLTVDKSRWQQGNVFSCSVMHEALHNHYTQKSLSLSPGKSRTVAAPSVFIFPPSDEQLKSGTASVVCLLNYFYPREAKVQWKVDNALQSGNSQESATEQDSKDSTYSLSSELTLSKADYEKHKVYACEVTHQGLSSPVTKSFNRGE
notes: 2H7 (anti-CD20) scFv and G19-4 (anti-CD3) scFv; also called αCD20×αCD3; TSC002 + TSC019
**Q.** Does B3 bind (CD20 on cells)?
**A.** Result: binds

B4: 2E12 (anti-CD28) scFv (scFv)
scFv: QVQLKESGPGSVAPSQSLSITCTVSGFSLTGYGVNWVRQPPGKGLEWLGMIWGDGSTDYNSALKSRLSITKDNSKSQVFLKMNSLQTDDTARYYCARDGYSNFHYYVMDYWGQGTSVTVSSGGGGSGGGGSGGGGSGGGGSDIVLTQSPASLAVSLGQRATISCRASESVEYYVTSLMQWYQQKPGQPPKLLISAASNVESGVPARFSGSGSGTDFSLNIHPVEEDDIAMYFCQQSRKVPWTFGGGTKLEIK
notes: also called 2E12 scFv
**Q.** Does B4 bind (CD28 on CD4+ T cells)?
**A.** Result: binds

B5: monovalent anti-CD28 polypeptide heterodimer X0124 (Fc fusion)
chain 1: QVQLKESGPGSVAPSQSLSITCTVSGFSLTGYGVNWVRQPPGKGLEWLGMIWGDGSTDYNSALKSRLSITKDNSKSQVFLKMNSLQTDDTARYYCARDGYSNFHYYVMDYWGQGTSVTVSSGGGGSGGGGSGGGGSGGGGSDIVLTQSPASLAVSLGQRATISCRASESVEYYVTSLMQWYQQKPGQPPKLLISAASNVESGVPARFSGSGSGTDFSLNIHPVEEDDIAMYFCQQSRKVPWTFGGGTKLEIKSSSASTKGPSVFPLAPSSKSTSGGTAALGCLVKDYFPEPVTVSWNSGALTSGVHTFPAVLQSSGLYSLSSVVTVPSSSLGTQTYICNVNHKPSNTKVDKKVRTEPKSSDKTHTCPPCPSGAPELLGGPSVFLFPPKPKDTLMISRTPEVTCVVVDVSHEDPEVKFNWYVDGVEVHNAKTKPREEQYNSTYRVVSVLTVLHQDWLNGKEYKCKVSNKALPAPIEKTISKAKGQPREPQVYTLPPSRDELTKNQVSLTCLVKGFYPSDIAVEWESNGQPENNYKTTPPVLDSDGSFFLYSKLTVDKSRWQQGNVFSCSVMHEALHNHYTQKSLSLSPGK
chain 2: TVAAPSVFIFPPSDEQLKSGTASVVCLLNNFYPREAKVQWKVDNALQSGNSQESVTEQDSKDSTYSLSSTLTLSKADYEKHKVYACEVTHQGLSSPVTKSFNRGERTEPKSSDKTHTCPPCPSGAPELLGGPSVFLFPPKPKDTLMISRTPEVTCVVVDVSHEDPEVKFNWYVDGVEVHNAKTKPREEQYNSTYRVVSVLTVLHQDWLNGKEYKCKVSNKALPAPIEKTISKAKGQPREPQVYTLPPSRDELTKNQVSLTCLVKGFYPSDIAVEWESNGQPENNYKTTPPVLDSDGSFFLYSKLTVDKSRWQQGNVFSCSVMHEALHNHYTQKSLSLSPGK
notes: One 2E12 (anti-CD28) scFv only; also called X0112 + X0113
**Q.** Does B5 bind (CD28 on CD4+ T cells)?
**A.** Result: binds
